Experimental data from IntAct's records for PubMed 19829382.

B1: Scaffold protein ILK (Mus musculus), O55222 (parent)
chain: MDDIFTQCREGNAVAVRLWLDNTENDLNQGDDHGFSPLHWACREGRSAVVEMLIMRGARINVMNRGDDTPLHLAASHGHRDIVQKLLQYKADINAVNEHGNVPLHYACFWGQDQVAEDLVANGALVSICNKYGEMPVDKAKAPLRELLRERAEKMGQNLNRIPYKDTFWKGTTRTRPRNGTLNKHSGIDFKQLNFLAKLNENHSGELWKGRWQGNDIVVKVLKVRDWSTRKSRDFNEECPRLRIFSHPNVLPVLGACQAPPAPHPTLITHWMPYGSLYNVLHEGTNFVVDQSQAVKFALDMARGMAFLHTLEPLIPRHALNSRSVMIDEDMTARISMADVKFSFQCPGRMYAPAWVAPEALQKKPEDTNRRSADMWSFAVLLWELVTREVPFADLSNMEIGMKVALEGLRPTIPPGISPHVCKLMKICMNEDPAKRPKFDMIVPILEKMQDK
partner: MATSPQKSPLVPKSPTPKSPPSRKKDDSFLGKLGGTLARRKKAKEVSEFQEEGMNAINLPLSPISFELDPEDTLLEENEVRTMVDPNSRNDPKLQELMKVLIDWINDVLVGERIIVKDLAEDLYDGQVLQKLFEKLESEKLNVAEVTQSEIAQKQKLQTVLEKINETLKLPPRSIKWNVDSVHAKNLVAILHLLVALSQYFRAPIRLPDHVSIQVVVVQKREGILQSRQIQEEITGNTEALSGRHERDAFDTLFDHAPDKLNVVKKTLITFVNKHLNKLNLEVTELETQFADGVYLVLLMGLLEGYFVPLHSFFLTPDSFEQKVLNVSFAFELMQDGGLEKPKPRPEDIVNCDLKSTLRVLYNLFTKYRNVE

Variants of: B1
Settings: with parva_mouse Parva

Variant | effect of a mutation on the interaction
MDDIFTQCREGNAVAVRLWLDNTENDLNQGDDHGFSPLHWACREGRSAVVEMLIMRGARINVMNRGDDTPLHLAASHGHRDIVQKLLQYKADINAVNEHGNVPLHYACFWGQDQVAEDLVANGALVSICNKYGEMPVDKAKAPLRELLRERAEKMGQNLNRIPYKDTFWKGTTRTRPRNGTLNKHSGIDFKQLNFLAKLNENHSGELWKGRWQGNDIVVAVLKVRDWSTRKSRDFNEECPRLRIFSHPNVLPVLGACQAPPAPHPTLITHWMPYGSLYNVLHEGTNFVVDQSQAVKFALDMARGMAFLHTLEPLIPRHALNSRSVMIDEDMTARISMADVKFSFQCPGRMYAPAWVAPEALQKKPEDTNRRSADMWSFAVLLWELVTREVPFADLSNMEIGMKVALEGLRPTIPPGISPHVCKLMKICMNEDPAKRPKFDMIVPILEKMQDK [K220A] | decreasing interaction strength
MDDIFTQCREGNAVAVRLWLDNTENDLNQGDDHGFSPLHWACREGRSAVVEMLIMRGARINVMNRGDDTPLHLAASHGHRDIVQKLLQYKADINAVNEHGNVPLHYACFWGQDQVAEDLVANGALVSICNKYGEMPVDKAKAPLRELLRERAEKMGQNLNRIPYKDTFWKGTTRTRPRNGTLNKHSGIDFKQLNFLAKLNENHSGELWKGRWQGNDIVVMVLKVRDWSTRKSRDFNEECPRLRIFSHPNVLPVLGACQAPPAPHPTLITHWMPYGSLYNVLHEGTNFVVDQSQAVKFALDMARGMAFLHTLEPLIPRHALNSRSVMIDEDMTARISMADVKFSFQCPGRMYAPAWVAPEALQKKPEDTNRRSADMWSFAVLLWELVTREVPFADLSNMEIGMKVALEGLRPTIPPGISPHVCKLMKICMNEDPAKRPKFDMIVPILEKMQDK [K220M] | decreasing interaction strength
